# Test results reported in patent publication US20260022175A1 (Chugai, published 2026).
# Where a chain is given by its changes, count along the chain named.
# T1: human FcγRIIb extracellular domain with C-terminal His-tag (human, UniProt P31994 43-217)
# T1 construct: extracellular domain; also called hFcγR IIb
# T1 sequence (looked up): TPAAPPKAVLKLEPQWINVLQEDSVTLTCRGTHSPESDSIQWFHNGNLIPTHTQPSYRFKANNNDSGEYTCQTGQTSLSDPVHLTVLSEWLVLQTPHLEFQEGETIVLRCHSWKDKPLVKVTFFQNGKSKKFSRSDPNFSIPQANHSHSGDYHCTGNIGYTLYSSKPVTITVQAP
# T2: human FcγRIIa H allotype extracellular domain with C-terminal His-tag (human, UniProt P12318 34-217)
# T2 construct: extracellular domain; also called hFcγR IIa H
# T2 sequence (looked up): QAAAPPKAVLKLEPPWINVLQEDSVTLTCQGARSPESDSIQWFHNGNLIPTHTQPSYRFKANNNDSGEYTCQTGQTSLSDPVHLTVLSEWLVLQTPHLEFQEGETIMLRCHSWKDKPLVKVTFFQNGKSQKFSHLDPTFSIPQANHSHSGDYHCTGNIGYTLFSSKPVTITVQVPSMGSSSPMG
# T3: human FcγRIIa R allotype extracellular domain with C-terminal His-tag (human, UniProt P12318 34-217)
# T3 construct: extracellular domain; also called hFcγR IIa R
# T3 sequence (looked up): T2 sequence (looked up) with H134R
# B1: 04H1389-mFa55/04L1305-mk1 (antibody, mouse IgG2a, kappa)
# heavy: EVQLVESGGGLVKPGGSLRLSCAASGFTFSSKTMNWVRQAPGKGLEWVSSISTQSHYIYYAESVKGRFTISRDNAKNSLYLQMNSLRAEDTAVYYCARYGKREDMLWVFDYWGQGTLVTVSSAKTTAPSVYPLAPVCGDTTGSSVTLGCLVKGYFPEPVTLTWNSGSLSSGVHTFPAVLQSDLYTLSSSVTVTSSTWPSQSITCNVAHPASSTKVDKKIEPRGPTIKPCPPCKCPAPNLLGGPDVFIFPPKIKDVLMISLSPIVTCVVVDVSEDDPDVQISWFVNNVEVHTAQTQTHREDYNSTLRVVSALPIQHQDWMSGKEFKCKVNNKDLPAPIERTISKPKGSVRAPQVYVLPPPEEEMTKKQVTLTCMVTDFMPEDIYVEWTNNGKTELNYKNTEPVLDSDGSYFMYSKLRVEKKNWVERNSYSCSVVHEGLHNHHTTKSFSRTPGK
# light: DIVMTQSPLSLPVTPGEPASISCDGPSTGVGDYNYVHWYQQKPGQAPRLLIYFTSKKPSGVPDRFSGSGSGTDFTLKISRVEAEDVGVYYCQTYAAPLGPMFGQGTKLEIKRADAAPTVSIFPPSSEQLTSGGASVVCFLNNFYPKDINVKWKIDGSERQNGVLNSWTDQDSKDSTYSMSSTLTLTKDEYERHNSYTCEATHKTSTSPIVKSFNRNEC
# notes: Mouse constant regions mFa55 and mk1; also called SW1389-mFa55
# B2: 04H1654-G1m/04L1610-lam1 (antibody, human IgG1, lambda)
# heavy: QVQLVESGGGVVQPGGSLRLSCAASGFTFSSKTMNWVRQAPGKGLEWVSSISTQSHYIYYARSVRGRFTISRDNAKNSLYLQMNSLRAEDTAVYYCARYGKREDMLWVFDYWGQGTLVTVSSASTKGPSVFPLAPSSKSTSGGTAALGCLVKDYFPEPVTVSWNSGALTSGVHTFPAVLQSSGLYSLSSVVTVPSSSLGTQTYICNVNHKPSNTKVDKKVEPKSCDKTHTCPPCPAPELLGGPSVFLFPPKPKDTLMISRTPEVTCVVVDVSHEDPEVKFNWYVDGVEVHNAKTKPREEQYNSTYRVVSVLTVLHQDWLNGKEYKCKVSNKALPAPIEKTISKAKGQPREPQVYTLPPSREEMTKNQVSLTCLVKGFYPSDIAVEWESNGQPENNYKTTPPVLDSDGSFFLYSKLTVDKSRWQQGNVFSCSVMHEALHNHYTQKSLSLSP
# light: QSALTQPPSASGSPGQSVTISCEGPSTGVGDYNWVHWYQQHPGKAPKLMIYFTSKKPSGVPDRFSGSKSGNTASLTVSGLQAEDEADYYCQTYAAPLGPMFGGGTKLTVLGQPKAAPSVTLFPPSSEELQANKATLVCLISDFYPGAVTVAWKADSSPVKAGVETTTPSKQSNNKYAASSYLSLTPEQWKSHRSYSCQVTHEGSTVEKTVAPTECS
# B3: 04H1656-G1m/04L1610-lam1 (antibody, human IgG1, lambda)
# heavy: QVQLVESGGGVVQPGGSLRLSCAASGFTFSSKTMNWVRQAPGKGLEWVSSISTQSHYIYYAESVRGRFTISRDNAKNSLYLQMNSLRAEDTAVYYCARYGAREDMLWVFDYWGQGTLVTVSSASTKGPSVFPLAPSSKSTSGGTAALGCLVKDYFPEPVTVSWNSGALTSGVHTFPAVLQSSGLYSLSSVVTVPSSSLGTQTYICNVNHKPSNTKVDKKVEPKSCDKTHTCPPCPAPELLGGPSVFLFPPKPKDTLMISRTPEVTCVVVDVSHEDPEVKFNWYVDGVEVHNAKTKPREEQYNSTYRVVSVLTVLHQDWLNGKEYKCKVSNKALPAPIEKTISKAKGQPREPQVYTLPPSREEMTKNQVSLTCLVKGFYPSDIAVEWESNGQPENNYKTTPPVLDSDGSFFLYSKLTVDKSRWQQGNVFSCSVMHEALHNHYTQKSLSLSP
# light: B2 light
# Experiments:
# [1] = molecular target: T4, human CTLA4 (human); assay: SPR, 37C, antibody captured by anti-mouse IgG, ATP 100 uM
# T4 construct: also called hCTLA4; hCTLA4-His-BAP
# Method: (§1) 20 mM ACES (pH 7.4), 150 mM NaCl, 2 mM MgCl₂, 0.05% Tween 20 with ATP added to the desired concentrations was used as the running buffer, and the assay was performed at 37° C. First, Rabbit Anti-Mouse IgG (Thermo Fisher Scientific) was immobilized onto Series S Sensor Chips CM5 (GE Healthcare), and the antibody was captured onto the chip by interacting an antibody solution prepared in an ATP-free running buffer. Next, the binding ability of the antibody to human CTLA4 in the presence or absence of ATP was evaluated by interacting with a human CTLA4 solution prepared in a running buffer with ATP added to the desired concentration, or a human CTLA4 solution prepared in an ATP-free running buffer. Chips were regenerated with 25 mM NaOH and 10 mM Glycine-HCl (pH 1.5) and assay was performed by repeatedly capturing antibodies. The dissociation constant of each antibody for CTLA4 was calculated using Biacore T200 Evaluation Software 2.0. Specifically, the binding rate constant ka (L/mol/s) and the dissociation rate constant kd (1/s) were calculated by global fitting of the sensorgrams obtained by the measurement using the 1:1 Langmuir binding model, and the dissociation constant KD (mol/L) was calculated from those values.
# [2] = molecular target: T4, human CTLA4; assay: SPR, 37C, antibody captured by anti-mouse IgG, ATP 10 uM
# Method: as §1
# [3] = molecular target: T4, human CTLA4; assay: SPR, 37C, antibody captured by anti-mouse IgG, ATP 1 uM
# Method: as §1
# [4] = molecular target: T4, human CTLA4; assay: SPR Biacore T200, 37C, antibody captured, ATP 10 uM
# Method: (§2) Biacore T200 was used to measure the binding of the generated antibodies to human CTLA4. 20 mM ACES (pH 7.4), 150 mM NaCl, 2 mM MgCl₂, 0.05% Tween 20 with ATP added to the desired concentration was used as the running buffer, and the assay was performed at 37° C. First, Protein G (CALBIOCHEM) was immobilized onto a Series S Sensor Chip CM3 (GE Healthcare), and the antibodies were captured by interacting an antibody solution prepared in an ATP-free running buffer with the chip. Next, by interacting with a human CTLA4 solution prepared in a running buffer containing ATP to the desired concentration, or a human CTLA4 solution prepared in a running buffer containing no ATP, the binding ability of the antibody to human CTLA4 in the presence or absence of ATP was evaluated. Chips were regenerated with 25 mM NaOH and 10 mM Glycine-HCl (pH 1.5), and assay was performed by repeatedly capturing antibodies. The dissociation constant of each antibody for CTLA4 was calculated using Biacore T200 Evaluation Software 2.0. Specifically, the binding rate constant ka (L/mol/s) and the dissociation rate constant kd (1/s) were calculated by global fitting of the sensorgrams obtained by the measurement, using a 1:1 Langmuir binding model. The dissociation constant KD (mol/L) was calculated from those values. Alternatively, the dissociation constant KD (mol/L) was calculated by the steady state model. In addition, the binding amount of CTLA4 per unit amount of antibody was calculated by correcting the amount of CTLA4 bound as calculated from the sensorgram obtained by the assay with the amount of antibody captured onto the chip surface.
# (§3) The binding ability of the generated variants to human CTLA4 in the presence of ADP or AMP was evaluated by Biacore T200 and compared with the binding ability in the presence of ATP.
# [5] = molecular target: T4, human CTLA4; assay: SPR Biacore T200, 37C, antibody captured, ATP 1 uM
# Method: as §2
# (§4) Next, the binding ability of some variants to mouse CTLA4 and cynomolgus monkey CTLA4 was evaluated.
# [6] = molecular target: T5, cynomolgus monkey CTLA4 (CyCTLA4-His-BAP) (cynomolgus monkey); assay: SPR Biacore T200, 37C, antibody captured, ATP 1 uM
# Method: as §2, §4
# [7] = molecular target: T6, mouse CTLA4 extracellular region linked with a His-tag (mCTLA4-His) (mouse, UniProt P09793 36-161); assay: SPR Biacore T200, 37C, antibody captured, ATP 1 uM
# Method: as §2, §4
# [8] = molecular target: T4, human CTLA4; assay: SPR Biacore T200, 37C, antibody captured, no ATP; no ATP
# Method: Biacore T200 was used to measure the binding of the generated antibodies to human CTLA4. 20 mM ACES (pH 7.4), 150 mM NaCl, 2 mM MgCl₂, 0.05% Tween 20 with ATP added to the desired concentration was used as the running buffer, and the assay was performed at 37° C. First, Protein G (CALBIOCHEM) was immobilized onto a Series S Sensor Chip CM3 (GE Healthcare), and the antibodies were captured by interacting an antibody solution prepared in an ATP-free running buffer with the chip. Next, by interacting with a human CTLA4 solution prepared in a running buffer containing ATP to the desired concentration, or a human CTLA4 solution prepared in a running buffer containing no ATP, the binding ability of the antibody to human CTLA4 in the presence or absence of ATP was evaluated. Chips were regenerated with 25 mM NaOH and 10 mM Glycine-HCl (pH 1.5), and assay was performed by repeatedly capturing antibodies. The dissociation constant of each antibody for CTLA4 was calculated using Biacore T200 Evaluation Software 2.0. Specifically, the binding rate constant ka (L/mol/s) and the dissociation rate constant kd (1/s) were calculated by global fitting of the sensorgrams obtained by the measurement, using a 1:1 Langmuir binding model. The dissociation constant KD (mol/L) was calculated from those values. Alternatively, the dissociation constant KD (mol/L) was calculated by the steady state model. […]
# [9] = molecular target: T4, human CTLA4; assay: SPR Biacore T200, 37C, antibody captured, ADP 10 uM;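 note: antibodies held on a Protein G CM3 chip, human CTLA4 as analyte in ACES pH 7.4 buffer, rates from a global 1:1 Langmuir fit, Kd from rates or steady state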
# Method: as §2, §3
# [10] = molecular target: T4, human CTLA4; assay: SPR Biacore T200, 37C, antibody captured, ATP 100 uM
# Method: as §2, §4
# [11] = molecular target: T5, cynomolgus monkey CTLA4 …; assay: as above
# Method: as §2, §4
# [12] = molecular target: T6, mouse CTLA4 extracellular region linked …; assay: as above
# Method: as §2, §4
# [13] = molecular target: T4, human CTLA4; assay: SPR Biacore T200, 37C, antibody captured, ATP 1 uM; remark: listed apart in the source
# [14] = molecular target: T4, human CTLA4; assay: SPR Biacore T200, 37C, antibody captured, ATP 10 uM; remark: listed apart in the source
# Method: as §2, §4
# [15] = molecular target: T5, cynomolgus monkey CTLA4 …; assay: as above
# Method: as §2, §4
# [16] = molecular target: T6, mouse CTLA4 extracellular region linked …; assay: as above
# Method: as §2, §4
# [17] = molecular target: T4, human CTLA4; assay: as above; remark: listed apart in the source
# Method: as §2
# [18] = molecular target: T4, human CTLA4; assay: SPR Biacore T200, 37C, antibody captured, AMP 10 uM
# [19] = molecular target: T7, human FcRn (human, UniProt P55899 24-290; P61769 21-119); assay: SPR Biacore T200, captured Ab, pH 6.0, steady state
# T7 construct: Prepared by the method of WO 2010/107110; also called hFcRn
# Method: The interaction between the generated antibodies and human FcRn was analyzed by the following method using Biacore T200. 50 mM Na-Phosphate, 150 mM NaCl, 0.05% Tween20 (pH 6.0) was used as the running buffer, and the assay was performed at 25° C. For the sensor chip, Series S SA (GE Healthcare) chips onto which CaptureSelect Human Fab-lambda Kinetics Biotin Conjugate (Thermo Fisher Scientific) was immobilized were used. The antibodies of interest were captured onto these chips and FcRn diluted in the running buffer was allowed to interact with them. Chips were regenerated with 10 mM Glycine-HCl (pH 1.5) and 25 mM NaOH, and assay was performed by repeatedly capturing antibodies. The dissociation constant for FcRn of each antibody was calculated using the steady state model, using Biacore T200 Evaluation Software 2.0.
# [20] = molecular target: T1, human FcγRIIb extracellular domain with …; assay: SPR; binding amount divided by that of 04H1656-G1m/04L1610-lam1
# [21] = molecular target: T1, human FcγRIIb extracellular domain with …; assay: SPR; FcγRIIb bound amount per unit captured Ab
# Method: (§5) The interaction between the generated antibodies and human FcγRs was analyzed by the following method using Biacore T200. 50 mM Na-Phosphate, 150 mM NaCl, 0.05% Tween20 (pH 7.4) was used as the running buffer, and the assay was performed at 25° C. For the sensor chips, Series S SA (GE Healthcare) chips onto which CaptureSelect Human Fab-lambda Kinetics Biotin Conjugate (Thermo Fisher Scientific) was immobilized were used. The antibodies of interest were captured onto these chips and each FcγR diluted in the running buffer was allowed to interact with them. Chips were regenerated with 10 mM Glycine-HCl (pH 1.5) and 25 mM NaOH, and assay was performed by repeatedly capturing antibodies. The dissociation constants KD (mol/L) for FcγRs of each antibody were calculated using Biacore T200 Evaluation Software 2.0, using the 1:1 Langmuir binding model for FcγRIa and FcγRIIIa and the steady state affinity model for FcγRIIa. For FcγRIIb, the binding amount of FcγRIIb per unit amount of antibody was calculated by correcting the binding amount of FcγRIIb obtained from the sensorgram obtained by the measurement with the amount of antibody captured onto the chip surface.
# [22] = molecular target: T2, human FcγRIIa H allotype extracellular …; assay: SPR; KD of 04H1656-G1m/04L1610-lam1 divided by KD of variant
# [23] = molecular target: T3, human FcγRIIa R allotype extracellular …; assay: as above
# [24] = molecular target: T8, human FcγRIIIa F allotype extracellular domain with C-terminal His-tag (human, UniProt P08637 17-208); assay: as above
# T8 construct: extracellular domain; also called hFcγR IIIa F
# [25] = molecular target: T9, human FcγRIIIa V allotype extracellular domain with C-terminal His-tag (human, UniProt P08637 17-208); assay: as above
# T9 construct: extracellular domain; also called hFcγR IIIa V
# [26] = molecular target: T7, human FcRn; assay: as above
# [27] = molecular target: T10, human FcγRIa extracellular domain with C-terminal His-tag (human, UniProt P12314 16-292); assay: as above
# T10 construct: extracellular domain; also called hFcγR Ia; hFcγRIa
# [28] = molecular target: T9, human FcγRIIIa V allotype extracellular …; assay: SPR Biacore T200, captured Ab, pH 7.4, steady state model
# Method: as §5
# [29] = molecular target: T2, human FcγRIIa H allotype extracellular …; assay: SPR Biacore T200, captured Ab, pH 7.4
# Method: as §5
# [30] = molecular target: T3, human FcγRIIa R allotype extracellular …; assay: SPR Biacore T200, captured Ab, pH 7.4
# Method: as §5
# [31] = molecular target: T8, human FcγRIIIa F allotype extracellular …; assay: SPR Biacore T200, captured Ab, pH 7.4
# Method: as §5
# [32] = molecular target: T10, human FcγRIa extracellular domain with …; assay: SPR Biacore T200, captured Ab, pH 7.4
# Method: as §5
# T5 sequence (chain, as listed by the source limits assumed): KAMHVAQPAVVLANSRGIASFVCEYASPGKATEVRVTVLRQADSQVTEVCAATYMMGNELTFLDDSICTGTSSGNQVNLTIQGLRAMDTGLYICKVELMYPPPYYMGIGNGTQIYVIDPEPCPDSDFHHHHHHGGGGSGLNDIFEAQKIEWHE
# T4 sequence (chain, as listed by the source limits assumed): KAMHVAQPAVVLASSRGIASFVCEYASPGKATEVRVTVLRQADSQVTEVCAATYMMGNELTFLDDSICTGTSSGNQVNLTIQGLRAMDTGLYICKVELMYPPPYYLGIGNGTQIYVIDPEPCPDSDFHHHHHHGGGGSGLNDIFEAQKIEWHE
# T9 sequence (P08637 17-208 F176V): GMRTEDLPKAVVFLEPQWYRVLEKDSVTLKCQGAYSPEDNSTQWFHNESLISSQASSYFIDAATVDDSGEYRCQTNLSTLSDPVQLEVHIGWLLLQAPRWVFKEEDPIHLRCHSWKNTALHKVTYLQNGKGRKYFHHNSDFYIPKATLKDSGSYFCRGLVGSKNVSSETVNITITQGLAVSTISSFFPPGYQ
# T10 sequence (P12314 16-292): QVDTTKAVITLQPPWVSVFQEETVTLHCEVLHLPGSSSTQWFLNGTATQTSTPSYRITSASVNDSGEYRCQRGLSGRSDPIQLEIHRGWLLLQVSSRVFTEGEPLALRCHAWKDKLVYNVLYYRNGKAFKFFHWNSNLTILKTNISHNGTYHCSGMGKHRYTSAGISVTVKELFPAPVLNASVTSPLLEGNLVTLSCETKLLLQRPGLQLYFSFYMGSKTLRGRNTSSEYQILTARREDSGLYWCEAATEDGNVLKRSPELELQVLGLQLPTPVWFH
# T7 sequence (P55899 24-290 limits assumed, chain 1 of 2): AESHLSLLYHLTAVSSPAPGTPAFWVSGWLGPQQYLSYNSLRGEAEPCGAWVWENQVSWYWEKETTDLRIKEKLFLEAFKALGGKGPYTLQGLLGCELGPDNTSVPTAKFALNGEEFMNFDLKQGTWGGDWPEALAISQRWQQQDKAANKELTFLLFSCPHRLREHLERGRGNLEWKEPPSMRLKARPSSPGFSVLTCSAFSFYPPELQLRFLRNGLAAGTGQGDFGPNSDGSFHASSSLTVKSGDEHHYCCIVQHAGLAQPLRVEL
# T7 sequence (P61769 21-119 limits assumed, chain 2 of 2): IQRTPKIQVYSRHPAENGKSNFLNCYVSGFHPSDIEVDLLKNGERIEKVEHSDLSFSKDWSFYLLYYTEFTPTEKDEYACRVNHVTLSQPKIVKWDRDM
# T8 sequence (P08637 17-208): as the sequence (P08637 17-208 F176V) above, with V160F counted along it
binder,measurement,setting,value
B1,Kd,[1],8.9 nM
same,Kd,[2],18 nM
same,Kd,[3],51 nM
B2,Kd,[4],19 nM
same,koff,[4],0.0014 s⁻¹
same,kon,[4],71000 M⁻¹ s⁻¹
same,Kd,[5],110 nM
same,Kd,[6],180 nM
same,Kd,[7],180 nM
same,Kd,[8],5.3 µM
same,Kd,[9],32 nM
same,koff,[9],0.0028 s⁻¹
same,kon,[9],88000 M⁻¹ s⁻¹
same,Kd,[10],4.4 nM
same,Kd,[11],8.1 nM
same,Kd,[12],10 nM
same,Kd,[13],120 nM
same,Kd,[14],15 nM
same,Kd,[15],28 nM
same,Kd,[16],27 nM
same,Kd,[17],19 nM
same,Kd,[18],100 nM
same,koff,[18],0.0089 s⁻¹
same,kon,[18],89000 M⁻¹ s⁻¹
B3,Kd,[19],1700 nM
same,Relative binding amount,[20],1
same,Binding amount,[21],0.008
same,Relative value to KD between G1m and hFcγRs,[22],1
same,Relative value to KD between G1m and hFcγRs,[23],1
same,Relative value to KD between G1m and hFcγRs,[24],1
same,Relative value to KD between G1m and hFcγRs,[25],1
same,Relative value to KD between G1m and hFcRn,[26],1
same,Relative value to KD between G1m and hFcγRs,[27],1
same,Kd,[28],970 nM
same,Kd,[29],1300 nM
same,Kd,[30],1600 nM
same,Kd,[31],1000 nM
same,Kd,[32],0.092 nM
